Measurements reported in IntAct's records for PubMed 29039417.

B1: Protein PTHB1 (Homo sapiens), Q3SYG4 (parent)
chain: MSLFKARDWWSTILGDKEEFDQGCLCLANVDNSGNGQDKIIVGSFMGYLRIFSPHPAKTGDGAQAEDLLLEVDLRDPVLQVEVGKFVSGTEMLHLAVLHSRKLCVYSVSGTLGNVEHGNQCQMKLMYEHNLQRTACNMTYGSFGGVKGRDLICIQSMDGMLMVFEQESYAFGRFLPGFLLPGPLAYSSRTDSFLTVSSCQQVESYKYQVLAFATDADKRQETEQQKLGSGKRLVVDWTLNIGEQALDICIVSFNQSASSVFVLGERNFFCLKDNGQIRFMKKLDWSPSCFLPYCSVSEGTINTLIGNHNNMLHIYQDVTLKWATQLPHIPVAVRVGCLHDLKGVIVTLSDDGHLQCSYLGTDPSLFQAPNVQSRELNYDELDVEMKELQKIIKDVNKSQGVWPMTEREDDLNVSVVVSPNFDSVSQATDVEVGTDLVPSVTVKVTLQNRVILQKAKLSVYVQPPLELTCDQFTFEFMTPDLTRTVSFSVYLKRSYTPSELEGNAVVSYSRPTDRNPDGIPRVIQCKFRLPLKLICLPGQPSKTASHKITIDTNKSPVSLLSLFPGFASQSDDDQVNVMGFHFLGGARITVLASKTSQRYRIQSEQFEDLWLITNELILRLQEYFEKQGVKDFACSFSGSIPLQEYFELIDHHFELRINGEKLEELLSERAVQFRAIQRRLLARFKDKTPAPLQHLDTLLDGTYKQVIALADAVEENQGNLFQSFTRLKSATHLVILLIALWQKLSADQVAILEAAFLPLQEDTQELGWEETVDAAISHLLKTCLSKSSKEQALNLNSQLNIPKDTSQLKKHITLLCDRLSKGGRLCLSTDAAAPQTMVMPGGCTTIPESDLEERSVEQDSTELFTNHRHLTAETPRPEVSPLQGVSE
partner: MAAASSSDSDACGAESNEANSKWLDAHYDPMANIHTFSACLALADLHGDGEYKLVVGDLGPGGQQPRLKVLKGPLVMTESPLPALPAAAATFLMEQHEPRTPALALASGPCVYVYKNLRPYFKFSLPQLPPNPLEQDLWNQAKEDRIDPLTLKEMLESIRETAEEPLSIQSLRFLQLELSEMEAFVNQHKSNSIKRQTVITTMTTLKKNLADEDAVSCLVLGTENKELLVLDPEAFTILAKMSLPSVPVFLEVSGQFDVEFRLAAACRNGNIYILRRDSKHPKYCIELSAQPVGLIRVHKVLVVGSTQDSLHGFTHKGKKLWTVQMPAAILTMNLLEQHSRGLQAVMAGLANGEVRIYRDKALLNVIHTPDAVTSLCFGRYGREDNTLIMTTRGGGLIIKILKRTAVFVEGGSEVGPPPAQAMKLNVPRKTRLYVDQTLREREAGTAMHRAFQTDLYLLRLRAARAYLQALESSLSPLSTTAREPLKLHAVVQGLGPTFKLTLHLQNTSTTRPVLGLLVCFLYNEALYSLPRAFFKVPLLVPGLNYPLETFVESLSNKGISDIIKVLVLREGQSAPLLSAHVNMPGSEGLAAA

Variants of: B1
Details: with bbs1_human BBS1, Q8NFJ9

Row | Variant | effect of a mutation on the interaction
1 | S806E | with no effect
2 | T805E | with no effect
3 | F563A | with no effect
4 | F563E | with no effect
5 | S545A | with no effect
6 | R824A | with no effect
7 | F636K | with no effect
8 | K704A | with no effect
9 | S541E | with no effect
10 | L618A | with no effect
11 | V713K | with no effect
12 | A755E | with no effect
13 | R868E | with no effect
14 | V437K | with no effect
15 | N614K | with no effect
16 | G585E | with no effect
17 | L808E | with no effect
18 | Q748E | with no effect
19 | T771A | with no effect
20 | M578A | with no effect
21 | M578K | with no effect
22 | T688K | disrupting interaction strength
23 | V417E | with no effect

Row | Variant | effect of a mutation on the interaction
24 | V506A | with no effect
25 | P463K | with no effect
26 | I812K | with no effect
27 | I812A | with no effect
28 | R619C | disrupting interaction strength
29 | R619A | with no effect
30 | T468E | with no effect
31 | T468A | with no effect
32 | Q722E | with no effect
33 | S498E | with no effect
34 | D711A | with no effect
35 | V671E | with no effect
36 | V671A | with no effect
37 | S880K | with no effect
38 | L500E | with no effect
39 | S787E | with no effect
40 | S494K | with no effect
41 | G628E | with no effect
42 | Q447K | with no effect
43 | Q426K | with no effect
44 | S418A | with no effect
45 | L680E | with no effect
46 | L533A | with no effect

Row | Variant | effect of a mutation on the interaction
47 | D830E | with no effect
48 | P537A | with no effect
49 | P537E | with no effect
50 | K454E | with no effect
51 | A833S | disrupting interaction strength
52 | A833K | with no effect
53 | S785E | with no effect
54 | E660K | with no effect
55 | I601E | with no effect
56 | T484E | with no effect
57 | Q807A | with no effect
58 | F721K | with no effect
59 | D409K | with no effect
60 | A832E | with no effect
61 | L795K | with no effect
62 | V772A | with no effect
63 | V772E | with no effect
64 | L583E | with no effect
65 | M839A | with no effect
66 | F632K | with no effect
67 | V590E | with no effect
68 | E790K | with no effect
69 | G518E | with no effect

Row | Variant | effect of a mutation on the interaction
70 | P875A | with no effect
71 | R669K | with no effect
72 | Q597E | with no effect
73 | T697K | with no effect
74 | T697E | with no effect
75 | V575E | with no effect
76 | P877E | with no effect
77 | C634E | with no effect
78 | G565E | with no effect
79 | G565A | with no effect
80 | D700A | with no effect
81 | I640E | with no effect
82 | I640A | with no effect
83 | W610A | with no effect
84 | E622K | disrupting interaction strength
85 | Y460A | with no effect
86 | N412A | with no effect
87 | K789E | with no effect
88 | Y623A | with no effect
89 | V734G | disrupting interaction strength
90 | D435A | with no effect
91 | E770A | with no effect
92 | F724K | with no effect
